Assays:
Assay type in all cases: physicochemical
[1] = Agitation-induced precipitation: vials shaken at 150 rotations per minute
[2] = Protein precipitation facilitated by trace levels of silicone (lubricated polypropylene syringe); conditions: adjusted to 0.02% (w/v) polysorbate 80
Excerpt: The silicone oil was introduced into the product upon use of standard lubricated polypropylene syringes equipped with siliconized rubber stoppers. […] The aggregation, deamidation and subsequent precipitation caused by denaturation at the air-liquid interface has become more discernable problematic with the drug being shipped to more clinical sites. Both causes of protein precipitation have been resolved by the addition of polysorbate 80 at a concentration of 0.02% (w/v).
An evaluation of the ability of 0.02% (w/v) polysorbate 80 to inhibit the protein precipitation facilitated by trace levels of silicone was conducted. […] The material was allowed to stand for several hours at room temperature.

[3] = Antibody aggregation with partially degraded polysorbate 80 (shaking and siliconized syringes); conditions: control samples without polysorbate 80, same conditions
Protocol: This material was diluted one-to-one with a 10 mg/mL solution of AN100226 in Formulation #2 resulting in a solution containing 0.01% (w/v) polysorbate 80 and 50% of the maximum level of degraded polysorbate 80.

[4] = 65 mg/mL liquid formulation: appearance and SEC; conditions: 65 mg/mL in 10 mM sodium phosphate, 140 mM sodium chloride, pH 6, about 0.06% polysorbate 80
[5] = Lyophilized formulation reconstituted to 100 mg/mL: reconstitution, appearance, SEC; conditions: immediately after lyophilization and after 2 wks at 40 deg
Protocol: The solution was filled at 5 mL per vial into 10 mL borosilicate glass vials and fitted with gray butyl rubber lyophilization stoppers. Lyophilization was done using a Virtis Gensis model lyophilizer. The product was frozen at a shelf temperature of −60° C. for 10 hours and then the shelf temperature was raised to −40°. Primary drying was performed at a shelf temperature of −10° C. and a chamber pressure of 100 mTorr for 20 hours. […] The vials were stoppered under vacuum.
The samples were analyzed immediately after lyophilization and after 2 wks of storage in the lyophilized form at 40 deg.

For natalizumab, the “appearance of vials after shaking” value ([1]; 5 mg/mL, Lot No. AN100226-0003 with 0.02% (w/v) polysorbate 80 added, 150 rotations per minute, room temperature, within 3 hours) was “remained clear and free of particles”, the “particle formation on shaking” value ([1]; vials completely filled, absence of polysorbate 80, shaken for extended periods of time) was “without additional particle formation being induced” and the “particles after 0.2 μm filtration into 5-mL vial” value ([2]; after syringe exposure, after several days) was “substantially free of particles”. The “precipitation by visual inspection” value ([2]; lubricated 60 mL polypropylene syringe, several hours at room temperature) was “no precipitation”, the “precipitation of the antibody” value [3] was “significant precipitation” and the appearance of solution [4] was “slightly opalescent but without particulates”. The “appearance of reconstituted solutions” value ([5]; 100 mg/mL reconstituted) was “clear and colorless with an absence of particulate material” and the reconstitution times ([5]; lyophilized from 5 mM histidine, 20 mg/mL sucrose, 0.02% polysorbate 80, pH 6, 1 mL WFI to 100 mg/mL) was “immediate”.

Source: patent US8815236B2, “Method for treating multiple sclerosis and crohn's disease” (Biogen Idec MA, Inc., priority 2003, dated 2014)
